Reference: US20220233710A1 (NANTONG YICHEN BIOPHARMA, published 2022)

B1: aIL-1β-2 antibody (antibody, V domains shown)
VH: QVQLQQWGAGLLKPSETLSLTCAVYGGSFSDYYWSWIRQPPGKGLEWIGEIDHSGSTNYNPSLKSRVTISVDTSKNQFSLKLSSVTAADTAVYYCARASPSSGWTLDYWGQGTLVTVSS
VL: QSVLTQPPSVSVSPGQTASITCSGDKLGDKFAFWYQQKPGQSPVLVIYLDNKRPSGIPERFSGSNSGNTATLTISGTQALDEADYYCYAWADTYEVFGGGTKVDIKR
B2: BSI-13 (bispecific antibody, human IgG1, kappa, N297A)
heavy: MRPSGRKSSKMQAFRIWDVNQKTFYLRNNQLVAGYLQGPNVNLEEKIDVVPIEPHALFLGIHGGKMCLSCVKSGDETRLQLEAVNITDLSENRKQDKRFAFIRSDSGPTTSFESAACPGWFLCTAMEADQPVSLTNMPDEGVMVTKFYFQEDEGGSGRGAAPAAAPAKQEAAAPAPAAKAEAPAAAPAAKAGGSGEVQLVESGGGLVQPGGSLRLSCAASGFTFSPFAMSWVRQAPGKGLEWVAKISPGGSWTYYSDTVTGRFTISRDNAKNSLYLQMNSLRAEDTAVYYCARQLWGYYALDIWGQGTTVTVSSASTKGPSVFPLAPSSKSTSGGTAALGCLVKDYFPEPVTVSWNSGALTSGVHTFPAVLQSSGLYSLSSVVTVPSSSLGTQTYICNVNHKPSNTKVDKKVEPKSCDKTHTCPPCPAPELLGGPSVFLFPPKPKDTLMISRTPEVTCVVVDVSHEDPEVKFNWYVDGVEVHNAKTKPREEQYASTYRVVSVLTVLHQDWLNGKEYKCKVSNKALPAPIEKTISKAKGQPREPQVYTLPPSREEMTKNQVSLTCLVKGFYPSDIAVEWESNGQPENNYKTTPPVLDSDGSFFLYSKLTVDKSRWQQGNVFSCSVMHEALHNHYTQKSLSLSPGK
light: EIVLTQSPATLSLSPGERATLSCSASISVSYMYWYQQKPGQAPRLLIYDMSNLASGIPARFSGSGSGTDFTLTISSLEPEDFAVYYCMQWSGYPYTFGGGTKVEIKRTVAAPSVFIFPPSDEQLKSGTASVVCLLNNFYPREAKVQWKVDNALQSGNSQESVTEQDSKDSTYSLSSTLTLSKADYEKHKVYACEVTHQGLSSPVTKSFNRGEC
notes: aIL-6 antibody fused with IL-1RA by a linker peptide
B3: BSI-16 (bispecific antibody, human IgG1, kappa)
heavy: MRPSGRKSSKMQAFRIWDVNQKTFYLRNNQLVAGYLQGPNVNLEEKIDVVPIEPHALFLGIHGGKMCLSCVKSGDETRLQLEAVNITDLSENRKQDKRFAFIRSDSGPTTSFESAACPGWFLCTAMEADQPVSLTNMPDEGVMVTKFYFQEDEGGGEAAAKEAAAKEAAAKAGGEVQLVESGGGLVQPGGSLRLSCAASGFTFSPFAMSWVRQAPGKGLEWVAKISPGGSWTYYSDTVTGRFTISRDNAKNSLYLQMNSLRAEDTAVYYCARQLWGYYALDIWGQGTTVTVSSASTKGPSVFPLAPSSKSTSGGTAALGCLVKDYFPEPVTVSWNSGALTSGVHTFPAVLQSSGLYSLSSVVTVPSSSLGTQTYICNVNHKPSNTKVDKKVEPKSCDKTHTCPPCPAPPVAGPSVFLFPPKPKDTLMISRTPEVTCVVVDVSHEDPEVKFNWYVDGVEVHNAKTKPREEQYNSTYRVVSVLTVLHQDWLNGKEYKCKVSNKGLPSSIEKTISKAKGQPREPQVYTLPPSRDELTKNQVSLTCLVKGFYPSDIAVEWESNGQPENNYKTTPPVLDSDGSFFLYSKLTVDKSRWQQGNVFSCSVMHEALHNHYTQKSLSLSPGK
light: B2 light
notes: as for B2
B4: aIL-6 antibody (antibody, human IgG1, kappa, N297A, V domains shown)
VH: EVQLVESGGGLVQPGGSLRLSCAASGFTFSPFAMSWVRQAPGKGLEWVAKISPGGSWTYYSDTVTGRFTISRDNAKNSLYLQMNSLRAEDTAVYYCARQLWGYYALDIWGQGTTVTVSS
VL: EIVLTQSPATLSLSPGERATLSCSASISVSYMYWYQQKPGQAPRLLIYDMSNLASGIPARFSGSGSGTDFTLTISSLEPEDFAVYYCMQWSGYPYTFGGGTKVEIKR

Columns and labels:
recombinant human IL-1β = target: T1, recombinant human IL-1β (human, UniProt P01584 117-269); assay: ELISA, IL-1β coated on plate, anti-human Fc-HRP
T1 construct: Bought protein
Experimental: (§1) Recombinant human IL-1β (Thermo Fisher Scientific), recombinant mouse IL-1β (Sino Bio), recombinant mouse IL-1R (Sino Bio), or recombinant human IL-1R (100 ng/well) (DPBS buffer, pH7.4) was coated in a 96-well plate, and incubated overnight at 4° C. After blocked by PBST (0.5% Tween-20 in PBS) containing 2% skimmed milk powder for 1 hour at room temperature, and being washed with PBST for 3 times, the gradient diluted bispecific molecules (0.006 nM-100 nM) were added and incubated at 37° C. for 1 h. After being washed with PBST for 3 times, anti-human Fc-HRP (KPL; 1:2500) secondary antibody diluted by 2% milk/PBST was added and incubated at room temperature for 1 h, and then washed by PBST for 5 times. QuantaBlu fluorescent peroxide enzyme substrate (Life technologies, Cat. 15169) was used for color development, and reading was performed at 325 nm and 420 nm, or TMB color reagent (Bio Legend) was used for color development, and the reading was performed at 650 nm. Data was analyzed by nonlinear regression using specific binding model in Prizm Graphpad software.

recombinant mouse IL-1β = target: T2, recombinant mouse IL-1β (mouse, UniProt P10749 118-269); assay: ELISA, IL-1β coated on plate, anti-human Fc-HRP
T2 construct: Bought protein; also called murine IL-1β
Experimental: as §1

Recombinant human IL-6 = target: T3, Recombinant human IL-6 (human, UniProt P05231 30-212); assay: ELISA, human IL-6 coated on plate, anti-human Fc-HRP
T3 construct: Bought protein
T3 sequence (P05231 30-212 limits assumed): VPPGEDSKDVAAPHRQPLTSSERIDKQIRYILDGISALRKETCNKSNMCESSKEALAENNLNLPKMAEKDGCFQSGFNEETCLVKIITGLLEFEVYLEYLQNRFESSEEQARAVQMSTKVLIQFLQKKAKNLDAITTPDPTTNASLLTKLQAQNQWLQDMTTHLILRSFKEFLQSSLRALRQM
Experimental: Recombinant human IL-6 (SinoBiological) (100 ng/well) (PBS buffer, pH7.4) was coated in a 96-well plate, and incubated overnight at 4° C. After blocked with PBST containing 2% skimmed milk powder (0.5% Tween-20 in PBS) at room temperature for 1 hour, followed by being washed for 3 times with PBST, the bispecific molecules (0.04 nM-30 nM) in gradient dilutions were added and incubated at 37° C. for 1 h. After being washed for 3 times with PBST, anti-human Fc-HRP (KPL, 1:2500) secondary antibody diluted by 2% milk/PBST was added and incubated at room temperature for 1 h, followed by being washed for 5 times with PBST. TMB (BioLegend) was used for color development, and readings was performed in Thermal VARIOSKAN FLASH plate reader at 650 nm. Data was analyzed with a log[agonist] vs response (3 parameters) model in “non-linear regression” by Graphpad Prizm software.

Row | Binder | binding result (recombinant human IL-1β) | binding result (recombinant mouse IL-1β) | binding result (Recombinant human IL-6)
1 | B1 | binds | binds | 
2 | B2 |  |  | binds
3 | B3 |  |  | binds
4 | B4 |  |  | binds
